The results in this text go back to patent US20250019427A1 (BYOMASS, published 2025).

Substitutions are numbered along the chain they refer to. “And” between values parts separate entries of the source, which are not always exact repeats. Equal entries are not always repeated.

Sequences and labels used below:
B1: Clone F Fab (Fab, V domains shown)
VH: QVQLVQSGAEVKKPGSSVKVSCKASGGTFGGYAISWVRQAPGQGLEWMGGIIPPYATANYAQKFQGRVTITADESTSTAYMELSSLRSEDTAVYYCARGVGTTHLDVWGQGTMVTVSS
VL: not shown
notes: Fab format
B2: Clone D Fab (Fab, V domains shown)
VH: QVQLQESGPGLVKPSQTLSLTCTVSGGSINSGGYYWTWIRQHPGKGLEWIGAIYYSGSTVYNPSLKSRVTISVDTSKNQFSLKLSSVTAADTAVYYCARGVEYQHFNEWGQGTLVTVSS
VL: not shown
notes: Fab format
B3: Clone Q Fab (Fab, V domains shown)
VH: B2 VH with N30S, Y34I, Y54A, V60Y, V101I, N107D, E108Y
VL: not shown
notes: Fab format
B4: Clone R Fab (Fab, V domains shown)
VH: B2 VH with N30S, Y34I, Y54A, V60Y, K66E, V101I, N107D, E108Y
VL: not shown
notes: Fab format
B5: Clone C Fab (Fab, V domains shown)
VH: B2 VH with N30S, T37S, Y54V, S58H, V60Y, N107S, E108L
VL: not shown
notes: Fab format; also called Fab of Clone C
B6: Clone N Fab (Fab, V domains shown)
VH: QVQLVQSGAEVKKPGASVKVSCKASGYTFTDYGIFWVRQAPGQGLEWMGWITAYSGDTHYAQKLQGRVTMTTDTSTSTAYMELRSLRSDDTAVYYCVRDTQYGGSPYWGQGTLVTVSS
VL: EIVMTQSPATLSVSPGERATLSCRASQSVSSNLAWYQQKPGQAPRLLIYGASTRATGIPARFSGSGSGTEFTLTISSLQSEDFAVYYCQQYNNWPITFGGGTKVEIK
notes: Fab format
B7: Clone H Fab (Fab, V domains shown)
VH: QVQLVQSGAEVKKPGSSVKVSCKASGGTFSSYYISWVRQAPGQGLEWMGGIAPISGTASYAQKFQGRVTITADESTSTAYMELSSLRSEDTAVYYCARGLAYDGYFDLWGRGTLVTVSS
VL: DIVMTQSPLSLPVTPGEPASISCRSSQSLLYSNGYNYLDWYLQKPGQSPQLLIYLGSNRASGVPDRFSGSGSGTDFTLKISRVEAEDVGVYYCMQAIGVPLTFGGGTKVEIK
notes: Fab format
B8: Clone E Fab (Fab, V domains shown)
VH: QVQLVQSGAEVKKPGASVKVSCKASGYTFTSYGINWVRQAPGQGLEWMGWITAYSGDTNYAQKLQGRVTMTTDTSTSTAYMELRSLRSDDTAVYYCARGPGQYADVDVWGQGTMVTVSS
VL: DIQMTQSPSSVSASVGDRVTITCRASQGISSWLAWYQQKPGKAPKLLIYAASSLQSGVPSRFSGSGSGTDFTLTISSLQPEDFATYYCQQANSFPITFGGGTKVEIK
notes: Fab format
B9: Clone O Fab (Fab, V domains shown)
VH: QVQLVQSGAEVKKPGATVKVSCKASGYTFDSLGMSWVRQAPGQGLEWMGYISTYSGDTVYAQKLQGRVTMTTDTSTSTAYMELRSLRSDDTAVYYCARESGQQVSALDPWGQGTLVTVSS
VL: B8 VL with S31R, A91G, N92A, I96L
notes: Fab format
B10: Clone K Fab (Fab, V domains shown)
VH: QVQLVQSGAEVKKPGASVKVSCKASGYTFTNEGISWVRQAPGQGLEWMGWISAYTADTFYAQKLQGRVTMTTDTSTSTAYMELRSLRSDDTAVYYCARTRHDTSGLRFDYWGQGTLVTVSS
VL: B8 VL with S30D, A91V, N92H
notes: Fab format
B11: Clone T Fab (Fab, V domains shown)
VH: B8 VH
VL: B8 VL with N92S, S93Q
notes: Fab format
B12: Clone S Fab (Fab, V domains shown)
VH: B8 VH
VL: B8 VL with M4L, S31P
notes: Fab format
B13: Clone I Fab (Fab, V domains shown)
VH: B8 VH with S31D, Y32E, N59V
VL: B8 VL
notes: Fab format
B14: Clone G Fab (Fab, V domains shown)
VH: B1 VH with G30Q, V37A, T102E, T103L
VL: not shown
notes: Fab format
B15: Clone B Fab (Fab, V domains shown)
VH: B2 VH with N30S, Y34I, Y54A, V60Y, V101I, N107D, E108Y
VL: not shown
notes: Fab format
B16: Clone A Fab (Fab, V domains shown)
VH: B2 VH with N30T, Y34S, T37S, Y54V, V60Y, N107D, E108Y
VL: not shown
notes: Fab format; also called Fab of Clone A
B17: Clone J Fab (Fab, V domains shown)
VH: B8 VH with T52D, D57S
VL: B8 VL
notes: Fab format
B18: Clone P Fab (Fab, V domains shown)
VH: B9 VH with L32Y, M34I, S35H, Y50W, S52T, T53A, Q103T, V104S, D108G
VL: B8 VL with S31R, A91G, N92A, I96L
notes: Fab format
B19: Clone F IgG (antibody, V domains shown)
VH: B1 VH
VL: not shown
notes: IgG format

T5 sequence (O95390 299-407 limits assumed): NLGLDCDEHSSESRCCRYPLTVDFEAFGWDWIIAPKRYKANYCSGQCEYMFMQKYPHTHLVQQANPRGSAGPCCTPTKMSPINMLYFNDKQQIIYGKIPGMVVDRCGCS

One experiment deals with T1, Mouse GDF15 Fc (mouse, UniProt Q9Z0J7 189-303, limits assumed).
T1 construct: also called mouse GDF15Fc fusion
T1 sequence (looked up): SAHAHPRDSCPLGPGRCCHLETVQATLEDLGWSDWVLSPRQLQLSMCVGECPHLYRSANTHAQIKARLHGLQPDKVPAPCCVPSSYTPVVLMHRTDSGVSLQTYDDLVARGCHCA
The experiment can be described thus: Octet BLI, Fab monovalent.
In turn, B1 gave a Kd of 26.1 nM.
In the case of B2, binding was put at a Kd of 157 nM.
Molecule B3 registered a Kd of 204 nM.
In the case of B4, binding was put at a Kd of 234 nM.
Molecule B5 registered a Kd of 156 nM.
The molecule B6 displayed a Kd of 2.56 nM.
Still for that read-out and setting: for B7 the value was 50.9 nM; for B8, 3.08 nM.
As to B9, the Kd was determined as 11.6 nM.
In the case of B10, the Kd worked out at 333 nM.
In the case of B11, binding was put at a Kd of 1.92 nM.
For the molecule B12, binding was characterised by a dissociation constant (Kd) of 1.36 nM.
In the case of B13, the Kd was 1.45 nM.

The target in the next experiment is T2, Cyno GDF15 Fc (cyno, UniProt G7PWZ3 193-308).
T2 construct: also called cyno GDF15-Fc fusion
T2 sequence: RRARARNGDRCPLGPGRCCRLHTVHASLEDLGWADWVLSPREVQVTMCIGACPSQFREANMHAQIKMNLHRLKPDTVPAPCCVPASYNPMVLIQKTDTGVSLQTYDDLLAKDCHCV
The experiment in a line: Octet BLI, Fab monovalent.
B1 registered a Kd of 0.553 nM.
For the molecule B14, binding was characterised by a dissociation constant (Kd) of 0.474 nM.
In the case of B15, binding was characterised by a dissociation constant (Kd) of 0.349 nM.
With B2, binding was characterised by a dissociation constant (Kd) of 0.562 nM.
As for B3, the dissociation constant (Kd) was 0.327 nM.
On the same count and under the same terms, for B16 the value was 0.536 nM; for B4, 0.366 nM; for B5, 0.36 nM.
Consider B7, for which the affinity, expressed as Kd, was 1.42 nM.
The same measure, in the same setting: in the case of B8 it was 0.413 nM.
Molecule B9 had a Kd of 0.277 nM.
As for B10, the Kd was 2.4 nM.
Still for that read-out and setting: for B17 the value was 0.769 nM; for B11, 0.369 nM.
B12 yielded a Kd of 0.252 nM.
With B13, the Kd came to 1.38 nM.
B18 returned a Kd of 1.72 nM.

A further experiment concerns the target T3, GDF15 (Homo sapiens (Human), UniProt Q99988 30-308).
T3 sequence: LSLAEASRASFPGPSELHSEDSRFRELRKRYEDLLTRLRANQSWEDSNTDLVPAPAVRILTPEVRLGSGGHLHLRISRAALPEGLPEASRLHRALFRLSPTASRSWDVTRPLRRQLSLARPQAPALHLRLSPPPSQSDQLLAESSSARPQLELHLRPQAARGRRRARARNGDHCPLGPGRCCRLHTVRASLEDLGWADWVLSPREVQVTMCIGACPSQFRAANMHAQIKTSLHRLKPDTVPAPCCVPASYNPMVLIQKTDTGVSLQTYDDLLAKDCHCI
The experiment can be described thus: cell-based or functional assay.
On to B19, for which the “GDF15 - GFRAL RET pERK IC50 (pM)” value was determined as 34.9 pM and the “GDF15 - GFRAL-RET Luciferase IC50 (pM)” value amounted to 91.3 pM.
Consider B1, for which the “GDF15 GFRAL RET pERK Fab IC50 pM” value is 11.2 pM.
On to B14, for which the “GDF15 GFRAL RET pERK Fab IC50 pM” value stood at 33.2 pM.
On to B15, for which the “GDF15 GFRAL RET pERK Fab IC50 pM” value was 30.9 pM.
As to B2, the “GDF15 GFRAL RET pERK Fab IC50 pM” value turned out to be 27 pM.
Consider B16, for which the “GDF15 GFRAL RET pERK Fab IC50 pM” value is 26.5 pM.
As to B5, the “GDF15 GFRAL RET pERK Fab IC50 pM” value is 36.8 pM.
Take B6: the “GDF15 GFRAL RET pERK Fab IC50 pM” value came out at 322 pM.
For the molecule B7, the “GDF15 GFRAL RET pERK Fab IC50 pM” value is 24.6 pM.
As for B8, the “GDF15 GFRAL RET pERK Fab IC50 pM” value was 46.7 pM.
On to B10, for which the “GDF15 GFRAL RET pERK Fab IC50 pM” value was 169 pM.
As for B17, the “GDF15 GFRAL RET pERK Fab IC50 pM” value amounted to 75.1 pM.
On to B13, for which the “GDF15 GFRAL RET pERK Fab IC50 pM” value came to 111 pM.
B18: the “GDF15 GFRAL RET pERK Fab IC50 pM” value was 701 pM and 1000 pM.

The target of a further experiment is T4, Human Activin B (human, UniProt P09529 293-407).
T4 construct: Also used for the Activin B ligand of the ActRIIB/SMAD reporter assay, where the species is not restated
T4 sequence (looked up): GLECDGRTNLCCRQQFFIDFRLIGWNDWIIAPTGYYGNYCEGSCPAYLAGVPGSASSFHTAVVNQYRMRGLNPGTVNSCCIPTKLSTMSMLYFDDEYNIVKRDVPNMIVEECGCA
The experiment in a line: Octet BLI, IgG on tip, avid.
Take B19: the binding result is on record as “no binding (tested: 100 nM)”.

A further experiment addresses T5, GDF11 (UniProt O95390 299-407).
T5 construct: Also the GDF-11 ligand of the ActRIIB/SMAD reporter assay
The experiment in a line: Octet BLI, IgG on tip, avid.
For B19, the binding result is given as “no binding (tested: 100 nM)”.

Another experiment has as its target T6, Human BMP10 (human, UniProt O95393 317-424).
T6 sequence (looked up): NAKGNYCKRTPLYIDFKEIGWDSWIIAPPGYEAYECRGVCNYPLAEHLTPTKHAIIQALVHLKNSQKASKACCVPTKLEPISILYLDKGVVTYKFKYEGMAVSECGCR
The experiment in a line: Octet BLI, IgG on tip, avid.
Consider B19, for which the binding result is reported as “no binding (tested: 100 nM)”.

In a further experiment the target is T7, Human Activin A Fc (human, UniProt P08476 311-426).
T7 sequence (looked up): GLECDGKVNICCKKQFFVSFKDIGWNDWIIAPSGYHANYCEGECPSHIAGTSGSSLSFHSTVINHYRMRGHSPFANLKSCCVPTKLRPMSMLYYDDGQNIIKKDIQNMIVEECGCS
The experiment can be described thus: Octet BLI, IgG on tip, avid.
As to B19, the binding result is “no binding (tested: 100 nM)”.

A further experiment addresses T8, GDNF (UniProt P39905 78-211).
T8 sequence (looked up): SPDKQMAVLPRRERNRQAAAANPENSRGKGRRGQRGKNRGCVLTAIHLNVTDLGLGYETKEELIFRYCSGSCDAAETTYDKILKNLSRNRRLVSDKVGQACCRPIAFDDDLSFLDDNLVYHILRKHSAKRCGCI
The experiment can be described thus: Octet BLI, IgG on tip, avid.
In the case of B19, the binding result is on record as “no binding (tested: 100 nM)”.

For another experiment, the target named is GDF8 (UniProt O14793 267-375). The experiment can be described thus: Octet BLI, IgG on tip, avid.
In the case of B19, the binding result is “no binding (tested: 100 nM)”.
